We go through two molecules from US20260226095A1 (GLYTECH, published 2026).

In the experiment the target is hPSMA (purified and soluble antigen) (human (printed as hPSMA), UniProt Q04609 44-750). The experiment can be described thus: SPR, Biacore T200, standard kinetics, antigen immobilized on CM5 chip. For orientation: SPR reads the build-up and loss of mass on a sensor chip optically.
Sequence of hPSMA (purified and soluble antigen) (Q04609 44-750): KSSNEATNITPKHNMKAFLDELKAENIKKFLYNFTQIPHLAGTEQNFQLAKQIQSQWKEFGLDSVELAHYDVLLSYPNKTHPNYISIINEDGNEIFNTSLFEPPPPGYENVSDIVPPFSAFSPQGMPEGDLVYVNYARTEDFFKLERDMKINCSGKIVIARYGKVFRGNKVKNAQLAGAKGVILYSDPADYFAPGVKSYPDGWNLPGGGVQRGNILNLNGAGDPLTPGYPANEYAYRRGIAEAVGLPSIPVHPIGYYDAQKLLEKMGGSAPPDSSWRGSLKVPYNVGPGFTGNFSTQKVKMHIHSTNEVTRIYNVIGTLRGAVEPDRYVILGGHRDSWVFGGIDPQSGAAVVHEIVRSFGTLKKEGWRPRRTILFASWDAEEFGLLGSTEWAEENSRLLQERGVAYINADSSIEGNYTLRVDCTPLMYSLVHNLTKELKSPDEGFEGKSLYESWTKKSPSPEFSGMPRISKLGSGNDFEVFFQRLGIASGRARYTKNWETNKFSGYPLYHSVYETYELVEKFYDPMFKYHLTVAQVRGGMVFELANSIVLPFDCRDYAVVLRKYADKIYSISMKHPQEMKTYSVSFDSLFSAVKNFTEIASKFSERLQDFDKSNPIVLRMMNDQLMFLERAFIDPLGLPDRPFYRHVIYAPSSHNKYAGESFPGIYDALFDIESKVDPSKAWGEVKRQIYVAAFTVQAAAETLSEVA

B1: scFv Ab1 (D2B) of synthesis (scFv)
scFv: EVKLQESGPGLVKPSQSLSLTCSVTGYSITSGYYWNWIRQFPGNKLEWMGSISFDGNNNYNPSLRNRISITRDTSKNQFFLKLNSVTTEDTATYYCAREGDYYGSSFFTYWGQGTLVTVSSGGGGSGGGGSGGGGSALDIVMTQSPASLSASVGETVTLTCGASENIYGALNWYQRKQGKSPQLLIYGATNLADGMSSRFSGSGSGRQYSLKISSLHPDDVATYYCQNVFRTYTFGGGTKLEIKRAAAHHHHHH
modifications: L-pyroglutamic acid (<E) printed at position 1 of segment 1; two disulfide bonds (C22-C96 and C161-C226)
notes: Made by full chemical synthesis, 254 residues ending at H254; also called scFv Ab1 synthesis; scFv D2B
As a reminder, the Kd is the concentration at which binding is half-saturated. A high value points to lower affinity. Turning to B1, the Kd was determined as 0.012 µM.

B2: scFv Ab1 RREF (scFv)
scFv: B1 scFv
notes: Produced in a prokaryotic system; Contains two tags (Myc and His); not shown: Myc tag present in RREF in addition to the His tag
Turning to B2, binding was characterised by a dissociation constant (Kd) of 0.027 µM.
